Test results from patent US20140112931A1 (UNIVERSITE DE MONTPELLIER 1, published 2014).

Columns and labels:
[1] = molecular target: T1, HER3 receptor on cells (HER3- and HER2/HER3-transfected NIH 3T3 cells, SKBR3 cells, BxPC3 cells) (human, UniProt P21860 20-1342); assay: flow cytometry competition on SKBR3 cells; HRG varied; competitor: antibody 12H8-B11 at the concentration giving 50% maximal binding; antibody 12H8-B11 as the displaced probe, SKBR3 cells
T1 construct: whole, on cells
Description: (§1) After one washing with PBS-1% BSA, anti-HER3 mAbs, at concentration giving 50% maximal binding, were added to each well for 1 h on ice.

[2] = molecular target: T1, HER3 receptor on cells (HER3- and …); assay: FACS competition on SKBR3 cells: heregulin against HER3-specific positive control antibody B
Description: as §1

[3] = molecular target: T2, HER2 on HER2- or HER2/HER3-transfected NIH 3T3 cells (UniProt P04626 23-1255, limits assumed); assay: flow cytometry on HER2-transfected NIH 3T3 cells
T2 construct: whole, on cells

[4] = molecular target: T3, EGFR on EGFR-transfected NIH 3T3 cells (UniProt P00533 25-1210, limits assumed); assay: flow cytometry on EGFR-transfected NIH 3T3 cells
T3 construct: whole, on cells; also called ErbB1; HER1

[5] = molecular target: T1, HER3 receptor on cells (HER3- and …); assay: flow cytometry on HER2/HER3-transfected NIH 3T3 cells
[6] = molecular target: T1, HER3 receptor on cells (HER3- and …); assay: flow cytometry on HER3-transfected NIH 3T3 cells
[7] = molecular target: T4, human HER3-Fc protein (R&D system) (human, UniProt P21860 20-643); assay: ELISA, HER3-Fc coated at 250 ng/ml
T4 construct: Bought (R&D system); called soluble HER3-Fc; also called soluble HER3-Fc; HER3-Fc antigen; not shown: Fc part

B1: heregulin (HRG) (ligand, UniProt Q02297-6 177-237, looked up)
chain: SHLVKCAEKEKTFCVNGGECFMVKDLSNPSRYLCKCPNEFTGDRCQNYVMASFYKHLGIEF
notes: also called HRG ligand
[1]
  IC50: ~2.5 nM
[2]
  IC50 (read off the curve): ~2 nM

B2: murine anti-HER3 monoclonal antibody 9F7-F11 (antibody, V domains shown)
VH: EVKLVESGGGLVQPGGSLKLSCAASGFTFSSYTMSWVRQTPEKRLEWVAYISDGGGVTYYPDTIKGRFTISRDNAKNTLYLQMSSLKSEDTAMYYCARDRYGLFAYWGQGTLVTVSA
VL: DIVMTQSQKFMSTSVGDRVSITCKASQNVGIAVAWYQQKPGQSPKLLIYSASNRYTGVPDRFTGSGSGTDFTLTISNMQSEDLADYFCQQYSNYPYTFGGGTKLEIK
[3]
  geometric mean (flow cytometry): 0.4
[4]
  geometric mean (flow cytometry): 0.4
[5]
  geometric mean (flow cytometry): 12.4
[6]
  geometric mean (flow cytometry): 1.8

B3: anti-HER3 antibody Ab6 (Merrimack Pharmaceuticals) (antibody, V domains shown)
VH: EVQLLESGGGLVQPGGSLRLSCAASGFTFSHYVMAWVRQAPGKGLEWVSSISSSGGWTLYADSVKGRFTISRDNSKNTLYLQMNSLRAEDTAVYYCTRGLKMATIFDYWGQGTLVTVSS
VL: QSALTQPASVSGSPGQSITISCTGTSSDVGSYNVVSWYQQHPGKAPKLIIYEVSQRPSGVSNRFSGSKSGNTASLTISGLQTEDEADYYCCSYAGSSIFVIFGGGTKVTVL
[3]
  geometric mean (flow cytometry): 0.3
[4]
  geometric mean (flow cytometry): 0.2
[5]
  geometric mean (flow cytometry): 14.1
[6]
  geometric mean (flow cytometry): 7.8

B4: anti-HER3 antibody U1-59 (Amgen/U3 Pharma-Daiichi Sankyo) (antibody, V domains shown)
VH: QVQLQQWGAGLLKPSETLSLTCAVYGGSFSGYYWSWIRQPPGKGLEWIGEINHSGSTNYNPSLKSRVTISVETSKNQFSLKLSSVTAADTAVYYCARDKWTWYFDLWGRGTLVTVSS
VL: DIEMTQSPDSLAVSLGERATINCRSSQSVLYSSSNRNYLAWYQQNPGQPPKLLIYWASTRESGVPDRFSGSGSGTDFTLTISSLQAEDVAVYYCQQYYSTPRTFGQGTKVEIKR
[7]
  EC50: ~0.2 mg/L
[3]
  geometric mean (flow cytometry): 0.4
[4]
  geometric mean (flow cytometry): 0.2
[5]
  geometric mean (flow cytometry): 15.5
[6]
  geometric mean (flow cytometry): 9.3
